Reference: PMC6005192

Target: bacteriophage λ holin S105, allele S105τ94 (internal G2H6G2 tag) (bacteriophage λ)
Experiment: cryo-EM structure

For “bacteriophage λ holin S105, allele S105τ94 (internal G2H6G2 tag) (natural protein)”, which stoichiometry N is on record?
The stoichiometry N was 72.
